Assay results reported in US5871739.

Biological target: β-crystallin (containing about 10% βA3 -crystallin)
Assay: ELISA of mouse sera in the same manner as in Experimental Example 2; anti-crystallin antibody titer, control group
Conditions: scale: dilution ratio

For “sera of control mice given PBS (Experimental Example 5) (polyclonal serum or antibody)”, the antibody titer was 500.
